The record followed here is patent US20210380678A1 (published 2021).

In experiment [1] the target is T1, human ZNRF3 extracellular domain (hZNRF3 ECD) (UniProt Q9ULT6 56-219, biotinylated (His-Avi tag)).
T1 chain: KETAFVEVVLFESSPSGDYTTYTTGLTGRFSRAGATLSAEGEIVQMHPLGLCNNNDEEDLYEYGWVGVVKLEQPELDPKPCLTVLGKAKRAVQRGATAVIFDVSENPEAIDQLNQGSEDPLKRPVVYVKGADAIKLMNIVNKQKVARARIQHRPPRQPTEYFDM
The experiment is described as follows: BLI steady-state.

Experiment [2] has as its target T2, human RNF43 extracellular domain (hRNF43 ECD) (UniProt Q68DV7 44-197, biotinylated (His-Avi tag)).
T2 chain: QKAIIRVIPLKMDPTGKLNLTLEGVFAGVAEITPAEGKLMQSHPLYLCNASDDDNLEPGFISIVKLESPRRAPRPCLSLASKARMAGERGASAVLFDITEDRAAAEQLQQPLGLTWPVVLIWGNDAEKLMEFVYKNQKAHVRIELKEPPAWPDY
The experiment in a line: BLI steady-state.

The target of experiment [3] is T3, human ASGR2 extracellular domain (hASGR2 ECD) (UniProt P07307 86-311, biotinylated (His/Avi tag)).
T3 chain: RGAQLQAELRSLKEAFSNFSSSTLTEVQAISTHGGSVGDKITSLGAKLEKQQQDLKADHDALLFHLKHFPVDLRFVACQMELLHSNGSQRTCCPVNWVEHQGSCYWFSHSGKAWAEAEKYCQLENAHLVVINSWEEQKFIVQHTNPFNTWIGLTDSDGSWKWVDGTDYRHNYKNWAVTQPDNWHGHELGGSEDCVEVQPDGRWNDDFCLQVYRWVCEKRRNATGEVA
The experiment in a line: BLI.

The target in experiment [4] is T4, human ASGR1 extracellular domain (hASGR1 ECD) (UniProt P07306 62-291, biotinylated (His-Avi tag)).
T4 chain: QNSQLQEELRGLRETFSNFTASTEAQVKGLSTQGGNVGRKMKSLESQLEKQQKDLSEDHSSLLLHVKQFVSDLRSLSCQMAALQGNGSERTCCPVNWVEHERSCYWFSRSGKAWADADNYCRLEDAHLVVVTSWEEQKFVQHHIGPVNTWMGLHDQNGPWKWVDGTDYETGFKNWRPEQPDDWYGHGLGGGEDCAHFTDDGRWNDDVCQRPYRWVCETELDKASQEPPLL
The experiment in a line: BLI.

Experiment [5] deals with T1, human ZNRF3 extracellular domain …. The experiment is described as follows: BLI; steady-state fit.
Experiment [6] addresses T2, human RNF43 extracellular domain …. The experiment in a line: BLI; steady-state fit.
In experiment [7] the target is T5, Fc portion of human IgG1-fused LGR5-ECD (R&D systems) (UniProt O75473 22-557).
T5 chain: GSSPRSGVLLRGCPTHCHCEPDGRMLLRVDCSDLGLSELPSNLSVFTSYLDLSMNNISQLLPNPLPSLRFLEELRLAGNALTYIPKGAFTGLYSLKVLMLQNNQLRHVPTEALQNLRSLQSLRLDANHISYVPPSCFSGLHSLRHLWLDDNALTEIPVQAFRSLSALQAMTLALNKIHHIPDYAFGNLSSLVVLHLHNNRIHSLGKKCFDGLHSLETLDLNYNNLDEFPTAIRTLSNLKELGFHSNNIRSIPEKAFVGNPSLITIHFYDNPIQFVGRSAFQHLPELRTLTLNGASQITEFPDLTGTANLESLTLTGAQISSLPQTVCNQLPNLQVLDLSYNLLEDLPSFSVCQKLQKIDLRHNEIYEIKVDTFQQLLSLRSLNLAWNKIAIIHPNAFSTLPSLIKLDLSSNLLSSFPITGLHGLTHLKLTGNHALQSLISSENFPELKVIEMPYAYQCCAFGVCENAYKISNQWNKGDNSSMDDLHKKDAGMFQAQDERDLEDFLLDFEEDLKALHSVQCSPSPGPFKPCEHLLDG
The experiment in a line: BLI steady-state.

In experiment [8] the target is T6, mouse ASGR1 extracellular domain (mASGR1 ECD) (biotinylated (His-Avi tag)).
T6 chain: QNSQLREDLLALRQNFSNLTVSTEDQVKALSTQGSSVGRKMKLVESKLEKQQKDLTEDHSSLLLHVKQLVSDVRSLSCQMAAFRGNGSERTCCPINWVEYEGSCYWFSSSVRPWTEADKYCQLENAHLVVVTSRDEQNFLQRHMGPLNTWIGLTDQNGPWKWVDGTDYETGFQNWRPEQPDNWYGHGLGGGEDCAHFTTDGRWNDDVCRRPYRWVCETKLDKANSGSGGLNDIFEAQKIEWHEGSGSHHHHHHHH
The experiment in a line: BLI.

In experiment [9] the target is T4, human ASGR1 extracellular domain …. The experiment in a line: BLI.
Experiment [10] shares this target. The experiment is described as follows: BLI; steady-state fit.

B1: αGFP-RSPO2-RA (anti-GFP, RSPO2 (F105R/F109A)) (other)
chain: QVQLVESGGGLVQPGGSLRLSCAASGFTFSRYGMHWVRQAPGKGLEWVSGISSIGSNTYYADSVKGRFTISRDNSKNTLYLQMNSLRAEDTAVYYCARWYKTYIDVWGQGTLVTVSSGGGGSGGGGSGGGGSDIELTQPPSVSVAPGQTARISCSGDNLGKKYVYWYQQKPGQAPVLVIYGDDERPSGIPERFSGSNSGNTATLTISGTQAEDEADYYCASYDSSHILIVFGGGTKLTVLGSGGSNPICKGCLSCSKDNGCSRCQQKLFFFLRREGMRQYGECLHSCPSGYYGHRAPDMNRCARCRIENCDSCRSKDACTKCKVGFYLHRGRCFDECPDGFAPLEETMECVEGGDYKDDDDKGSHHHHHHHH
On to B1, for which the Kd in experiment [1] is 170 nM; in [2] it was 31 nM.

B2: αGFP-RSPO2-WT (anti-GFP, RSPO2 wild type) (other)
chain: QVQLVESGGGLVQPGGSLRLSCAASGFTFSRYGMHWVRQAPGKGLEWVSGISSIGSNTYYADSVKGRFTISRDNSKNTLYLQMNSLRAEDTAVYYCARWYKTYIDVWGQGTLVTVSSGGGGSGGGGSGGGGSDIELTQPPSVSVAPGQTARISCSGDNLGKKYVYWYQQKPGQAPVLVIYGDDERPSGIPERFSGSNSGNTATLTISGTQAEDEADYYCASYDSSHILIVFGGGTKLTVLGSGGSNPICKGCLSCSKDNGCSRCQQKLFFFLRREGMRQYGECLHSCPSGYYGHRAPDMNRCARCRIENCDSCFSKDFCTKCKVGFYLHRGRCFDECPDGFAPLEETMECVEGGDYKDDDDKGSHHHHHHHH
Take B2: the equilibrium dissociation constant (Kd) in experiment [1] is 160 nM; in [2], 42 nM.

B3: Abv-3D11 Fab (Fab, V domains shown)
VH: EVQLVESGGGLVQPKGSLKLSCAASGFSFNTYAMNWVRQAPGKGLEWVARIRSKSNNYATYYADSVKDRFTISRDDSESMLYLQMNNLKTEDTAMYYCVRPRYDYWYFDVWGTGTTVTVSS
VL: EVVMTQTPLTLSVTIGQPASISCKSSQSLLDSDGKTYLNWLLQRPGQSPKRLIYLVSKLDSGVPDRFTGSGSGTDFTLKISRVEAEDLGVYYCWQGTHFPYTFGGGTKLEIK
As for B3, the affinity in experiment [3], expressed as Kd, was 110 nM.

B4: LP1-8M24 Fab (Fab, V domains shown)
VH: QVQLQQSGAELARPGASVKLSCKASGYTFTNYGINWVKQRTGQGLEWIGEIFPRSDNTFYNEKFKGKATLTADKSSTTAYMELRSLTSEDSAVYFCARKGRDYGTSHYFDYWGQGTTLTVSS
VL: DIQMTQSPASLSVSVGETVTITCRISENIYSNLAWYQQKQGKSPHLLVYAAINLADGVPSRFSGSGSGTQFSLKINSLQSEDFGSYYCQHFWGTPFTFGSGTKLEIK
For B4, binding in [4] was characterised by a dissociation constant (Kd) of 0.17 nM.

B5: αTFR1-RSPO2-WT (anti-TFR1, RSPO2 wild type) (other)
chain: QVQLQQSGPELVRPGVSVKISCKGSGYTFTDYAMHWVKQSHAKSLEWIGGISTYFGRTNYNQKFKGRATMTVDKSSSTAYMELARLTSEDSALYYCARGLSGNYVMDYWGQGTSVTVSSGGGGSGGGGSGGGGSDIVLFQSPASLAVSLGQRATISCRASESVDDYGNSFMHWYQQKPGQPPKLLIYRASNLESGIPARFSGSGSRTDFTLTINPVEADDVATYYCQQSNEAPPTFGGGTKLEIRGSGGSNPICKGCLSCSKDNGCSRCQQKLFFFLRREGMRQYGECLHSCPSGYYGHRAPDMNRCARCRIENCDSCFSKDFCTKCKVGFYLHRGRCFDECPDGFAPLEETMECVEGGDYKDDDDKGSHHHHHHHH
Take B5: the Kd in experiment [5] was found to be 72 nM; in experiment [6], 44 nM; in experiment [7], 5 nM.

B6: αTFR1-RSPO2-RA (anti-TFR1, RSPO2 (F105R/F109A)) (other)
chain: QVQLQQSGPELVRPGVSVKISCKGSGYTFTDYAMHWVKQSHAKSLEWIGGISTYFGRTNYNQKFKGRATMTVDKSSSTAYMELARLTSEDSALYYCARGLSGNYVMDYWGQGTSVTVSSGGGGSGGGGSGGGGSDIVLFQSPASLAVSLGQRATISCRASESVDDYGNSFMHWYQQKPGQPPKLLIYRASNLESGIPARFSGSGSRTDFTLTINPVEADDVATYYCQQSNEAPPTFGGGTKLEIRGSGGSNPICKGCLSCSKDNGCSRCQQKLFFFLRREGMRQYGECLHSCPSGYYGHRAPDMNRCARCRIENCDSCRSKDACTKCKVGFYLHRGRCFDECPDGFAPLEETMECVEGGDYKDDDDKGSHHHHHHHH
As to B6, the figures for the Kd in experiment [5] and in experiment [6] were 75 nM and 45 nM, respectively.

B7: Abv-10B8 Fab (Fab, V domains shown)
VH: DVKLVESGEGLVKPGGSLKLSCAASGFTFSSYAMSWVRQTPEKRLEWVAYISSGGDYIYYVDTVKGRFTISRDNARNTLYLQMSSLKSEDTAVYYCTREGTGGMDYWGQGTSVTVSS
VL: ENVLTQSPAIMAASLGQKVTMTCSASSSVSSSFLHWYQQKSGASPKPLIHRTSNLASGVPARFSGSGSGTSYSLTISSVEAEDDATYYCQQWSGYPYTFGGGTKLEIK
The molecule B7 gave a Kd in experiment [3] of 230 nM.

B8: anti-ASGR1 Fab (Fab, V domains shown)
VH: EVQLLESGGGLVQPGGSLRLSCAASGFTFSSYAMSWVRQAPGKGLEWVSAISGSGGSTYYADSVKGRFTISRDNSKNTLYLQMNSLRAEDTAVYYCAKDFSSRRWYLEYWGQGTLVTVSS
VL: DIELTQDPAVSVALGQTVRITCQGDSLRSYYASWYQQKPGQAPVLVIYGKNNRPSGIPDRFSGSSSGNTASLTITGAQAEDEADYYCNSLERIGYLSYVFGGGTKLTVLG
For the molecule B8, the Kd turned out to be 213 nM in [8] and 349 nM in [9].

B9: 024S-E03 Fab (Fab, V domains shown)
VH: QVQLQQSGPGLVKPSQTLSLTCAISGASVSSNSAAWNWIRQSPSRGLEWLGRTYYRSKWYNDYAVSVKSRITINPDTSKNQFSLQLNSVTPGDTAVYYCARWNHEEHYFDYWGQGTLVTVSS
VL: DVVMTQSPATLSFSPGERATLSCRASQSVGSYLAWYQQRPGQAPRPLIYDATNRATGIPTRFSGSGSGTDFTLTISSLEPEDFATYYCQHRRTFGRGTKLEIK
Regarding B9, in experiment [10], the Kd was determined as 180 nM.

B10: 024S-A04 Fab (Fab, V domains shown)
VH: QVQLQQSGPGLVKPSQTLSLTCAISGDSVSSNSVAWNWMRQSPSRGLEWLGRTYYRSKWYYDYAVSVKSRITINPDTSKNQFSLQLNSVTPEDTAVYYCASWTRGAFDIWGQGTMVTVSS
VL: DIQLTQSPATLSFSPGERATLSCRASQSVGSYLAWYQQRPGQAPRPLIYDATNRATGIPTRFSGSGSGTDFTLTISSLEPEDFATYYCQHRRTFGRGTKLEIK
In experiment [10], B10 gave a Kd of 100 nM.

B11: 024S-D03 Fab (Fab, V domains shown)
VH: QVQLQQSGPGLVKPSQTLSLTCAISGDSVSSNSAAWNWMRQSPSRGLEWLGRTYYRSKWYNDYAVSVKSRMTINPDTSRNQFSLQLNSVTLEDTAVYYCARWNHEEHYFDYWGQGTLVTVSS
VL: EIVLTQSPATLSFSPGERATLSCRASQSVGSYLAWYQQRPGQAPRPLIYDATNRATGIPTRFSGSGSGTDFTLTISSLEPEDFATYYCQHRRTFGRGTKLEIK
In experiment [10], B11 yielded a Kd of 130 nM.

B12: LP1-2I13 Fab (Fab, V domains shown)
VH: EVQLVESGGGLVKPGGSRKLSCAASGFTFSDYGMHWVRQAPEKGLEWVAYISSGSSTIYYADTVKGRFTISRDNAKNTLFLQMTSLRSEDTAMYYCSRKGGFGDYEKSYAMDYWGQGTSVTVSS
VL: DIQMTQSPASLSASVGETVTITCRASENIYSYLVWYQQKQGKSPQLLVYNAKTLAEGVPSRFSGSGSGTQFSLKINSLQPEDFGSYYCQHHYGTWTFGGGIKLEIK
In turn, B12 yielded a dissociation constant Kd in [4] of 7.3 nM.
